Assay results published in IntAct's records for PubMed 12221107.

B1: Low density lipoprotein receptor adapter protein 1 (Homo sapiens), Q5SW96 (parent)
chain: MDALKSAGRALIRSPSLAKQSWGGGGRHRKLPENWTDTRETLLEGMLFSLKYLGMTLVEQPKGEELSAAAIKRIVATAKASGKKLQKVTLKVSPRGIILTDNLTNQLIENVSIYRISYCTADKMHDKVFAYIAQSQHNQSLECHAFLCTKRKMAQAVTLTVAQAFKVAFEFWQVSKEEKEKRDKASQEGGDVLGARQDCTPSLKSLVATGNLLDLEETAKAPLSTVSANTTNMDEVPRPQALSGSSVVWELDDGLDEAFSRLAQSRTNPQVLDTGLTAQDMHYAQCLSPVDWDKPDSSGTEQDDLFSF
B2: AP-2 complex subunit beta (Homo sapiens), P63010 (parent)
chain: MTDSKYFTTNKKGEIFELKAELNNEKKEKRKEAVKKVIAAMTVGKDVSSLFPDVVNCMQTDNLELKKLVYLYLMNYAKSQPDMAIMAVNSFVKDCEDPNPLIRALAVRTMGCIRVDKITEYLCEPLRKCLKDEDPYVRKTAAVCVAKLHDINAQMVEDQGFLDSLRDLIADSNPMVVANAVAALSEISESHPNSNLLDLNPQNINKLLTALNECTEWGQIFILDCLSNYNPKDDREAQSICERVTPRLSHANSAVVLSAVKVLMKFLELLPKDSDYYNMLLKKLAPPLVTLLSGEPEVQYVALRNINLIVQKRPEILKQEIKVFFVKYNDPIYVKLEKLDIMIRLASQANIAQVLAELKEYATEVDVDFVRKAVRAIGRCAIKVEQSAERCVSTLLDLIQTKVNYVVQEAIVVIRDIFRKYPNKYESIIATLCENLDSLDEPDARAAMIWIVGEYAERIDNADELLESFLEGFHDESTQVQLTLLTAIVKLFLKKPSETQELVQQVLSLATQDSDNPDLRDRGYIYWRLLSTDPVTAKEVVLSEKPLISEETDLIEPTLLDELICHIGSLASVYHKPPNAFVEGSHGIHRKHLPIHHGSTDAGDSPVGTTTATNLEQPQVIPSQGDLLGDLLNLDLGPPVNVPQVSSMQMGAVDLLGGGLDSLVGQSFIPSSVPATFAPSPTPAVVSSGLNDLFELSTGIGMAPGGYVAPKAVWLPAVKAKGLEISGTFTHRQGHIYMEMNFTNKALQHMTDFAIQFNKNSFGVIPSTPLAIHTPLMPNQSIDVSLPLNTLGPVMKMEPLNNLQVAVKNNIDVFYFSCLIPLNVLFVEDGKMERQVFLATWKDIPNENELQFQIKECHLNADTVSSKLQNNNVYTIAKRNVEGQDMLYQSLKLTNGIWILAELRIQPGNPNYTLSLKCRAPEVSQYIYQVYDSILKN
partner: B1 chain

Variants of: B1
Conditions: with clh1_bovin CLTC

Variant	effect of a mutation on the interaction
D214A;E216A	disrupting interaction strength
L212A;L213A	disrupting interaction strength

Variants of: B1
Conditions: with ap2b1_human AP2B1, P63010

Variant	effect of a mutation on the interaction
R266A	disrupting interaction strength

Variants of: B2
Conditions: with arh_human LDLRAP1, Q5SW96

Variant	effect of a mutation on the interaction
E902A	decreasing interaction strength
E849A	disrupting interaction strength
